Experimental data as given in patent publication US20040223968A1.

What was measured:
Assay in all cases: cell-based or functional assay
[1] = biological target: MCP-1RB (monocyte chemoattractant protein-1 receptor B) (human) (UniProt P41597)
[2] = biological target: MIP-1α/RANTES receptor (Homo sapiens (Human)) (UniProt P32246)
[3] = biological target: MCP-1RA (monocyte chemoattractant protein-1 receptor A) (human) (UniProt P41597)
Sequence of MCP-1RA (monocyte chemoattractant protein-1 receptor A) (human) (P41597 whole entry): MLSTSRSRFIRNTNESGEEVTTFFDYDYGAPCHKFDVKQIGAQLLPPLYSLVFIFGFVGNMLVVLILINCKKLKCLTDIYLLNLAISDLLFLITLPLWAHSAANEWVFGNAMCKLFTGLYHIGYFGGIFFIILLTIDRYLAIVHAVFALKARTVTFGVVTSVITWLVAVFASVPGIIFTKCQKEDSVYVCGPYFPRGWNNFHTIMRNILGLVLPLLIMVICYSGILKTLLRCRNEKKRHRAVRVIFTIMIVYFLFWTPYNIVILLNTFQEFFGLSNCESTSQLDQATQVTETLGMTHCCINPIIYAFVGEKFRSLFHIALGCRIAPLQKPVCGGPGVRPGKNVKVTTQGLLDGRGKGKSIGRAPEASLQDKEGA

Sequence of MCP-1RB (monocyte chemoattractant protein-1 receptor B) (human) (P41597 other isoform, or with tags, fused parts or gaps): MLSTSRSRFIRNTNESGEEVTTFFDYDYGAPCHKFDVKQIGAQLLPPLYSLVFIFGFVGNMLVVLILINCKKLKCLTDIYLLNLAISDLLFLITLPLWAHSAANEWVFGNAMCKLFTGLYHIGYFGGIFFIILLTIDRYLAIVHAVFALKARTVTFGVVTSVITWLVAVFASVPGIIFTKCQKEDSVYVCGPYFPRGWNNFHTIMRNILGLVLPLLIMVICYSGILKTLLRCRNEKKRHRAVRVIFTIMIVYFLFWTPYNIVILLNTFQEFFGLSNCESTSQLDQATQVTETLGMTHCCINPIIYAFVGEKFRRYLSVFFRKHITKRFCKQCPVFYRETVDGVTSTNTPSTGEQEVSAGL
Sequence of MIP-1α/RANTES receptor (Homo sapiens (Human)) (P32246 whole entry): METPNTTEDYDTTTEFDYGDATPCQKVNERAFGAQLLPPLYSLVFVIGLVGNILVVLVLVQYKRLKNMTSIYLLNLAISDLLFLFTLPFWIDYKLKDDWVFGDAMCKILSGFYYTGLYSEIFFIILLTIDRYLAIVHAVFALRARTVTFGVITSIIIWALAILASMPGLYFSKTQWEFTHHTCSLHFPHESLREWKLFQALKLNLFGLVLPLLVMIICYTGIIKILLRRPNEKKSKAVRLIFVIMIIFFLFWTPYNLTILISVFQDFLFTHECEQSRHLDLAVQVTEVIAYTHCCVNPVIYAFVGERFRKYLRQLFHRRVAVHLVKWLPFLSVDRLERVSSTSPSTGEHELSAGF

With “Gro-α (from UniProt P09341 35-107) (ligand)” the IC50(nM), Inhibition of Adenylyl Cyclase, 293 cells stably expressing MCP-1RB [1] was over 1000 nM and the IC50(nM), Inhibition of Adenylyl Cyclase, 293 cells stably expressing the MIP-1α/RANTES receptor [2] was over 1000 nM.
“IL-8 (interleukin-8) (from UniProt P10145 28-99) (ligand)” was tested, and the IC50(nM), Inhibition of Adenylyl Cyclase, 293 cells stably expressing MCP-1RB [1] was over 1000 nM.
Substance “MCP-1 (monocyte chemoattractant protein-1) (from UniProt P13500 24-99) (ligand)” has an EC50, 45Ca efflux in Xenopus oocytes injected with receptor cRNA [1] of 15 nM, an EC50, intracellular calcium mobilization (indo-1) in stably transfected MCP-1RB/293 cells [1] of 3.4 nM and an IC50(nM), Inhibition of Adenylyl Cyclase, 293 cells stably expressing MCP-1RB [1] of 0.09 nM. The Selectivity (MCP-1RB against the MIP-1α/RANTES receptor, from the adenylyl cyclase IC50s) [1] was over 9000 fold, the block of the forskolin-induced increase of cAMP in MCP-1RB-transfected 293 cells [1] was 78% and the reduction of basal cAMP accumulation in MCP-1RB-transfected 293 cells [1] was 55%. It also gave an EC50, 45Ca efflux in Xenopus oocytes injected with receptor cRNA [3] of 15 nM and an IC50(nM), Inhibition of Adenylyl Cyclase, 293 cells stably expressing the MIP-1α/RANTES receptor [2] of 820 nM.
With “MIP-1α (from UniProt P10147 27-92) (ligand)” the IC50(nM), Inhibition of Adenylyl Cyclase, 293 cells stably expressing MCP-1RB [1] was over 1000 nM.
In the case of “MIP-1β (from UniProt P13236 24-92) (ligand)”, the IC50(nM), Inhibition of Adenylyl Cyclase, 293 cells stably expressing MCP-1RB [1] is reported as over 1000 nM.
With “RANTES (from UniProt P13501 24-91) (ligand)” the IC50(nM), Inhibition of Adenylyl Cyclase, 293 cells stably expressing MCP-1RB [1] was over 1000 nM.
